Assay [1] has as its target HaloTag-fused talin1 (HT-talin1) expressed in BAF/LFA1 cells (UniProt P26039). Briefly: single-molecule binding analysis (HT-Tln1 imaging in BAF/LFA1 cells). Conditions: ICAM1+PMA, read off a plot.
Assay [2] has as its target T1, GST-fused talin1 FERM F2–F3 domain.
T1 chain: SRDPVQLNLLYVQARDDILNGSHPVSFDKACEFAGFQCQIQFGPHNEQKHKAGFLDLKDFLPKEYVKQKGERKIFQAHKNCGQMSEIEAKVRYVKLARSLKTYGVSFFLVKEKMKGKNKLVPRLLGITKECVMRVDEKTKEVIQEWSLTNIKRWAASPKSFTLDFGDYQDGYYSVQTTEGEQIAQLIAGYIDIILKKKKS
Briefly: BLI.

The target is the same in assay [3]. Description: BLI. In general terms: Biolayer interferometry detects binding as a change in optical thickness at a sensor tip.
Assay [4] deals with T2, GST-fused talin1 FERM F2–F3 domain (GST carrier omitted. F2-F3 limits are not given; 206-405 is the usual talin1 F2-F3 construct. Mouse is assumed because the other talin1 constructs in the paper are mouse.).
T2 chain: T1 chain
Briefly: BLI; Octet RH96; GST-talin1 FERM F2–F3 (10 μg/ml) immobilized on Octet GST Biosensors; synthetic integrin CT peptides at 4.9, 14.8, 44.4 and 133 μM as analytes in 25 mM Tris–HCl, 150 mM NaCl, 0.05% Triton X-100, pH 7.5; binding to GST alone subtracted. To be noted: both partners purified.

The mark [5] stands for this setting: β2β7: n = 1453, β2β7-NND: n = 1726, parent: est. 19.

Sequence of HaloTag-fused talin1 (HT-talin1) expressed in BAF/LFA1 cells (P26039 whole entry, looked up, the tested form may be a part): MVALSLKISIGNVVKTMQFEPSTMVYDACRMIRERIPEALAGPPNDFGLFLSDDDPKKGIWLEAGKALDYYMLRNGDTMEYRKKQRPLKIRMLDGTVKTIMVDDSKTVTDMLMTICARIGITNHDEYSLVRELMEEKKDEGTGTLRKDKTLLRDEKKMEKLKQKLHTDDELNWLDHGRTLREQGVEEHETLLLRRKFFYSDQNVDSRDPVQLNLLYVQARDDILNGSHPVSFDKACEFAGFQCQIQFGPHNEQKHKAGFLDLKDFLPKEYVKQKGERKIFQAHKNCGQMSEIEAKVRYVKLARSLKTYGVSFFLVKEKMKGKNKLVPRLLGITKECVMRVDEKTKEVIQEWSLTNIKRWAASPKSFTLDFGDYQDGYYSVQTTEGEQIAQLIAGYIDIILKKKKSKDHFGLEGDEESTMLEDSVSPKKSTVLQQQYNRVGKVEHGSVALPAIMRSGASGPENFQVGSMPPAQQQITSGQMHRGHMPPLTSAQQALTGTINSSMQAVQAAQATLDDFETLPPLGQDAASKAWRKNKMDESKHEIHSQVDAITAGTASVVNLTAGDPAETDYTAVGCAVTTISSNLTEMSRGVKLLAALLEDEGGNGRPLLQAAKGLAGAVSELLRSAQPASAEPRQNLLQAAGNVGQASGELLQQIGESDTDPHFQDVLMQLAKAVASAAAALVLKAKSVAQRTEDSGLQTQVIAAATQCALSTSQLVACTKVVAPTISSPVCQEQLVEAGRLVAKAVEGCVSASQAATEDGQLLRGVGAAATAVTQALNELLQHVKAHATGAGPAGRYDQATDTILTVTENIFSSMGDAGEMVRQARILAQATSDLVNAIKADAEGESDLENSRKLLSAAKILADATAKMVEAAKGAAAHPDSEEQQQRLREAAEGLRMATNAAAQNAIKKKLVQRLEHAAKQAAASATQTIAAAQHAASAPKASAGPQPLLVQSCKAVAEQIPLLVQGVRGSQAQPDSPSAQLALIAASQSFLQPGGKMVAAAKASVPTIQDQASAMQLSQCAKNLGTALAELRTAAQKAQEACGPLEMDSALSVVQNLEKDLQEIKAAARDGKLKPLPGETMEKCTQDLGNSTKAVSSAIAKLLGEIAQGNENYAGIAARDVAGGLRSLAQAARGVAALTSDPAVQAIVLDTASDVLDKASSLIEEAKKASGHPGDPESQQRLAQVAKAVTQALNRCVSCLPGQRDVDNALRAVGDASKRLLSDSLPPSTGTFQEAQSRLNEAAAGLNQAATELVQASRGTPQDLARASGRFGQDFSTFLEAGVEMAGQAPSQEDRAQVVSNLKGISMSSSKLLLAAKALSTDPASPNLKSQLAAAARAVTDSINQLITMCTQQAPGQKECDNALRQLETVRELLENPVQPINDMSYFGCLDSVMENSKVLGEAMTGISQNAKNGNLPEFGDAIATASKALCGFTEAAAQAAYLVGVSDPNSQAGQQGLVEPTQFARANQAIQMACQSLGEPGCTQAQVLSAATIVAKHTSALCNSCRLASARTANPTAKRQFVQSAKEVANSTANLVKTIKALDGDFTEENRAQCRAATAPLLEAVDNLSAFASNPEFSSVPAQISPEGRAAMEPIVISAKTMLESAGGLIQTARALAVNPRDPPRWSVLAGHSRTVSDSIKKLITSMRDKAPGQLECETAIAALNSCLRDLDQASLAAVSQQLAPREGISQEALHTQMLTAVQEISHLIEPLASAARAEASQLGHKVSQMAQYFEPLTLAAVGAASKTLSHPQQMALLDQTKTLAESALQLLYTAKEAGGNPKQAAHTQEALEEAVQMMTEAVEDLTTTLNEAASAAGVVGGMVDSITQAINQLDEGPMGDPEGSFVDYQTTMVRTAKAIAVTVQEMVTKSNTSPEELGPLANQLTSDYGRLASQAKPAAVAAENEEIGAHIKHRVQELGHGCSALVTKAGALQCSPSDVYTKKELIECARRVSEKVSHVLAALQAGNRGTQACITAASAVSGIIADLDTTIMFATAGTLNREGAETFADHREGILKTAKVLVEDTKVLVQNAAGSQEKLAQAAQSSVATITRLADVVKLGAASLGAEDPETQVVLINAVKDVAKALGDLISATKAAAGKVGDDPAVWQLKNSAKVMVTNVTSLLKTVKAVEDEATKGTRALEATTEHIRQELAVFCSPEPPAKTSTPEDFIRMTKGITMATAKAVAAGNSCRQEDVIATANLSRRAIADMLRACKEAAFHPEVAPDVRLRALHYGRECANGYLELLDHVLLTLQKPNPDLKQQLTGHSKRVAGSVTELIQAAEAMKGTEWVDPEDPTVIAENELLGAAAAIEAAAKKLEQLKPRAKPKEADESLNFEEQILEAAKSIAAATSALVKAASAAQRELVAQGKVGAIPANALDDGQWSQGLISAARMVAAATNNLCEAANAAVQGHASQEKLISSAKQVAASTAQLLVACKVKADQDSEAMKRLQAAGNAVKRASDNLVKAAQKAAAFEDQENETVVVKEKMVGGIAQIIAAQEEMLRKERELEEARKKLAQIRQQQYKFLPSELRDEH

Turning to “chimeric LFA1 αLα4/β2β7 (cytoplasmic tails of αL and β2 replaced with those of α4 and β7) (from UniProt P13612;P26010) KQDS to NND (β7 WN linker)”, the other: binding frequency (events/area) in assay [1] (β2β7: n = 22, β2β7-NND: n = 14, parent: est. 1.2) worked out at 4.7 µm-2. Moreover, in assay [1] (setting [5]), the other: frequency of binding time 1 to 10 s (yellow segment) is 23% and the other: frequency of binding time, top of stacked bar (1 to 10 s plus >10 s) turned out to be 24%.

B1: synthetic integrin β1 cytoplasmic tail peptide (peptide)
peptide: KLLMIIHDRREFAKFEKEKMNAKWDTGENPIYKSAVTTVVNPKYEGK
modifications: GST carrier omitted. F2-F3 limits are not given; 206-405 is the usual talin1 F2-F3 construct. Mouse is assumed because the other talin1 constructs in the paper are mouse.
As usually defined, the koff is a measure of how fast the partners let go of each other. Read a high koff as a short-lived complex. Usually Kd stands for a measure of binding affinity in units of concentration. Molecule B1 registered an off-rate constant (koff) in assay [2] of 0.00509 s⁻¹. Moreover, the Kd in assay [3] amounted to 90.2 µM.

B2: synthetic integrin β7 cytoplasmic tail peptide (peptide)
peptide: RLSVEIYDRREYSRFEKEQQQLNWKQDSNPLYKSAITTTINPRFQEADSPTL
modifications: GST carrier omitted. F2-F3 limits are not given; 206-405 is the usual talin1 F2-F3 construct. Mouse is assumed because the other talin1 constructs in the paper are mouse.
Molecule B2 yielded a koff in assay [2] of 0.00597 s⁻¹. The same molecule gave a Kd in assay [3] of 124 µM.

B3: synthetic integrin β3 cytoplasmic tail peptide (peptide)
peptide: KLLITIHDRKEFAKFEEERARAKWDTANNPLYKEATSTFTNITYRGT
modifications: GST carrier omitted. F2-F3 limits are not given; 206-405 is the usual talin1 F2-F3 construct. Mouse is assumed because the other talin1 constructs in the paper are mouse.
B3 came in with an off-rate constant (koff) in assay [2] of 0.00458 s⁻¹. In assay [3], this molecule returned a dissociation constant (Kd) of 133 µM.

B4: synthetic integrin β2 cytoplasmic tail peptide (peptide)
peptide: KALIHLSDLREYRRFEKEKLKSQWNNDNPLFKSATTTVMNPKFAES
modifications: GST carrier omitted. F2-F3 limits are not given; 206-405 is the usual talin1 F2-F3 construct. Mouse is assumed because the other talin1 constructs in the paper are mouse.
The molecule B4 returned a koff in assay [2] of 0.00398 s⁻¹. Further, the Kd in assay [3] was found to be 43.5 µM.

B5: synthetic integrin β2 cytoplasmic tail peptide (peptide, UniProt P05107 724-769, looked up)
peptide: B4 peptide
notes: integrin β2 cytoplasmic tail peptide; also called β2 integrin; β2-CT; source: synthetic peptide (GenScript)
As for B5, in assay [4], the “fold higher affinity than m25 (β7 peptide)” value came out at 3 fold, the “fold higher affinity than m26 (β3 peptide)” value was 3 fold and the “fold higher affinity than m27 (β1 peptide)” value was determined as 2 fold.

The values above are taken from paper PMC12637224, “The nonconserved integrin cytoplasmic region determines integrin subtype–specific characteristics by modulating talin1 binding kinetics” (The Journal of Biological Chemistry, 2025).
